Reference: EP4745157A1 (Korea Research Institute of Bioscience and Biotechnology, dated 2026)

Legend:
[1] = biological target: T1, TM4SF5-Fc antigen protein (UniProt O14894); test: Biacore, TM4SF5-Fc immobilized directly on the chip
T1 sequence (looked up): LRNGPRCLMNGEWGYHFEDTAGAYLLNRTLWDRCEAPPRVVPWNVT

[2] = biological target: T2, hEC2-Fc-myc antigen (human) (UniProt O14894); test: Octet (BLI), IgG against hEC2-Fc-myc
T2 sequence (looked up): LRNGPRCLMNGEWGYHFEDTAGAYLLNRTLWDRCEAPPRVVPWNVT

[3] = biological target: T2, hEC2-Fc-myc antigen (human); test: ELISA, IgG against hEC2-Fc-myc
[4] = biological target: T3, TM4SF5 (antigen of SPR/BIACORE/ELISA, construct not stated) (UniProt O14894 112-157, limits assumed); test: SPR
T3 construct: also called TM4SF5 target
T3 chain (looked up): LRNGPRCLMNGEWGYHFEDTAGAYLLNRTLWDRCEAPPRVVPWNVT

[5] = biological target: T4, TM4SF5 (antigen of SPR/BIACORE/ELISA, construct not stated) (UniProt O14894); test: SPR
T4 sequence (looked up): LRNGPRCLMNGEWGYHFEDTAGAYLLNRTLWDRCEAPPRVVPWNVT

[6] = biological target: T4, TM4SF5 (antigen of SPR/BIACORE/ELISA, construct not stated); test: BIACORE

B1: huAb27-9_E01 IgG (antibody, V domains shown)
VH: EVQLVQSGADVKEPGASVKVSCKASGYTFTDYEMHWVRQAPGQGLEWMGAIDPETGGTAYNQKFKGWVTMTADKSISTAYMELSRLRSDDTAVYYCTRPYLGYWGQGTLVTVSS
VL: EIVLTQSPGMLSLSPGERATLSCRSSQSLVHRNGNTYLHWYQQKPGQAPRLLIYKVSNRFSGIPDRFSGSGSGTDFTLTISRLEPEDFAVYYCFQGSHIPLTFGQGTKVEIKR
- fold improvement of antigen-binding affinity against parent huAb27-9 [1]: 3 fold

B2: 2-1 IgG (antibody, V domains shown)
VH: QVQLVQSGAEVKKPGASVKVSCKASGYTFTDYEMHWVRQAPGQGLEWMGAIDPETGGTFVVSKFKGRVTMTADKSISTAYMELSRLRSDDTAVYYCARPYLGYWGQGTLVTVSS
VL: EIVLTQSPGTLSLSPGERATLSCRSSQSLVHSNGNTYLHWYQQKPGQAPRLLIYKVSNRFSGIPDRFSGSGSGTDFTLTISRLEPEDFAVYYCFQGSHIPLTFGQGTKVEIK
- fold improvement of KD relative to huAb27-9 [2]: 12.6 fold
- fold improvement of EC50 relative to huAb27-9 [3]: 41.4 fold

B3: 1-5 IgG (antibody, V domains shown)
VH: QVQLVQSGAEVKKPGASVKVSCKASGYTFTDYEMHWVRQAPGQGLEWMGAIDPETGGTFVKRKFKGRVTMTADKSISTAYMELSRLRSDDTAVYYCARPYLGYWGQGTLVTVSS
VL: EIVLTQSPGTLSLSPGERATLSCRSSQSLVHSNGNTYLHWYQQKPGQAPRLLIYKVSNRFSGIPDRFSGSGSGTDFTLTISRLEPEDFAVYYCFQGSHIPLTFGQGTKVEIK
notes: IgG; also called T1-5
- fold improvement of KD relative to huAb27-9 [2]: 7.7 fold
- Kd [4]: 3.94 nM
- fold improvement of KD against chimeric Ab27 [4]: ~4 fold
- fold improvement of KD against humanized Ab27-hz9 [4]: ~2.4 fold

B4: S43 IgG (antibody, V domains shown)
VH: QVQLVQSGAEVKKPGASVKVSCKASGYRFTDYEMHWVRQAPGQGLEWMGAIDPAFGGTAYNQKFKGRVTMTADKSISTAYMELSRLRSDDTAVYYCARPYLGYWGQGTLVTVSS
VL: EIVLTQSPGTLSLSPGERATLSCRSSQSLVHSNGNTYLHWYQQKPGQAPRLLIYKVSNRFSGIPDRFSGSGSGTDFTLTISRLEPEDFAVYYCFQGSHIPLTFGQGTKVEIK
notes: IgG1; also called huAb27-9_M74; M74
- Kd [4]: 4.19 nM
- fold improvement of KD against chimeric Ab27 [4]: ~4 fold
- fold improvement of KD against humanized Ab27-hz9 [4]: ~2.4 fold

B5: huAb27-9 scFv-Fc (Fc fusion, part only; not given: linker, domain order, hinge-Fc, not shown: another chain or arm of the molecule; a dimerising Fc or GST; small tags and cut ends)
VH: QVQLVQSGAEVKKPGASVKVSCKASGYTFTDYEMHWVRQAPGQGLEWMGAIDPETGGTAYNQKFKGRVTMTADKSISTAYMELSRLRSDDTAVYYCARPYLGYWGQGTLVTVSS
VL: EIVLTQSPGTLSLSPGERATLSCRSSQSLVHSNGNTYLHWYQQKPGQAPRLLIYKVSNRFSGIPDRFSGSGSGTDFTLTISRLEPEDFAVYYCFQGSHIPLTFGQGTKVEIK
- Kd [5]: 7.23 nM
- fold difference in affinity against Ab27 scFv-Fc [5]: 1.4 fold

B6: EO1 H(G)L(GG) (antibody, V domains shown, not shown: a dimerising Fc or GST)
VH: EVQLVQSGADVKEPGASVKVSCKASGYTFTDYEMHWVRQAPGQGLEWMGAIDPETGGTAYNQKFKGWVTMTADKSISTAYMELSRLRSDDTAVYYCTRPYLGYWGQGTLVTVSS
VL: EIVLTQSPGMLSLSPGERATLSCRSSQSLVHRNGNTYLHWYQQKPGQAPRLLIYKVSNRFSGIPDRFSGSGSGTDFTLTISRLEPEDFAVYYCFQGSHIPLTFGQGTKVEIKG
- fold improvement in affinity against EO1 [6]: 2 fold

B7: S43 (G2) (antibody, V domains shown, not shown: a dimerising Fc or GST)
VH: QVQLVQSGAEVKKPGASVKVSCKASGYRFTDYEMHWVRQAPGQGLEWMGAIDPAFGGTAYNQKFKGRVTMTADKSISTAYMELSRLRSDDTAVYYCARPYLGYWGQGTLVTVSS
VL: EIVLTQSPGTLSLSPGERATLSCRSSQSLVHSNGNTYLHWYQQKPGQAPRLLIYKVSNRFSGIPDRFSGSGSGTDFTLTISRLEPEDFAVYYCFQGSHIPLTFGQGTKVEIKG
- fold reduction in affinity against S43 [6]: 1.5 fold

B8: huAb27-9 IgG (antibody, V domains shown)
VH: QVQLVQSGAEVKKPGASVKVSCKASGYTFTDYEMHWVRQAPGQGLEWMGAIDPETGGTAYNQKFKGRVTMTADKSISTAYMELSRLRSDDTAVYYCARPYLGYWGQGTLVTVSS
VL: EIVLTQSPGTLSLSPGERATLSCRSSQSLVHSNGNTYLHWYQQKPGQAPRLLIYKVSNRFSGIPDRFSGSGSGTDFTLTISRLEPEDFAVYYCFQGSHIPLTFGQGTKVEIKR
notes: IgG1 format; also called Hz#9 IgG; Hz #9 IgG
- Kd [4]: 9.46 nM
